Source: patent US20020081617A1, “Fluorescence and FRET based assays for biomolecules on beads” (priority 2000, published 2002)
Several values for one entry are separate records, joined by “and”; a condition that tells them apart may be missing. Equal values may be shown once.

Legend:
[1] = biological target: biotinylated and fluorescein-tagged 5-FLAG peptide on streptavidin-coated beads; experiment: FRET quenching of 5-FLAG on beads by TR-M1 (FIG. 8)
[2] = biological target: biotinylated and fluorescein-tagged 5-FLAG peptide on streptavidin-coated beads; experiment: affinity micro-column of fluorescein FLAG peptide beads, real-time FRET, kinetic model fit
[3] = biological target: biotinylated and fluorescein-tagged 5-FLAG peptide on streptavidin-coated beads; experiment: FRET quenching on 5-FLAG bearing beads, flow cytometry, buffer with Ca2+, sigmoidal analysis
[4] = biological target: biotinylated and fluorescein-tagged 5-FLAG peptide on streptavidin-coated beads; experiment: flow cytometry of bead-borne FLAG peptides incubated with TR-M1 mAbs, FRET quenching (FIG. 18)
[5] = biological target: biotinylated and fluorescein-tagged 5-FLAG peptide on streptavidin-coated beads; experiment: FRET quenching on 5-FLAG bearing beads, flow cytometry, calcium-free buffer, sigmoidal analysis
[6] = biological target: non-biotinylated fluorescent 5-FLAG peptide (soluble); experiment: FRET titration of TR-M1 into fluorescent FLAG peptide in solution, spectrofluorimetry, 1 mM Ca2+
[7] = biological target: biotinylated and fluorescein-tagged 5-FLAG peptide on streptavidin-coated beads; experiment: affinity micro-column of fluorescein FLAG peptide beads, FRET endpoints, sigmoidal dose-response curve
[8] = biological target: streptavidin coated beads (Streptomyces avidinii, UniProt P22629); experiment: Binding of biotinylated ligands to streptavidin-coated beads (centrifugation assays); conditions: read-out: binding affinity (Kd) to streptavidin coated beads
Chain of streptavidin coated beads (P22629 25-183): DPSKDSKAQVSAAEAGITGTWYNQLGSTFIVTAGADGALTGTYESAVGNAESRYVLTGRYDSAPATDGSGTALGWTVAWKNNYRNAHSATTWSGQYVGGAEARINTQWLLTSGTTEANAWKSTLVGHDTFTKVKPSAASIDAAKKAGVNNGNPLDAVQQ
Procedure: Binding analysis of biotinylated biomolecules to streptavidin-bearing beads were performed. Centrifugation assays using paired spectrofluorimetric and flow cytometric analysis were carried out to compare and corroborate the flow cytometric data against the traditional spectroflurometric measurements.
The flow cytometric analysis used a Becton-Dickinson FACScan flow cytometer obtained from Sunnyvale, Calif. that interfaced to a Power PC Macintosh using the CellQuest software package. The FACScan is equipped with a 15 mW air-cooled argon ion laser. The laser output is fixed at 488 nm. It has been shown that the mean of the histogram is the quantity relevant to binding capacity. The average fluorescence of a single bead is converted to the number of fluorophores per bead on the basis of flow cytometric calibration beads obtained from Quantum 825 Flow Cytometry Standards Corporation, San Juan, PR. […] [formula]
MCFLb mean channel fluorescence are the means of the histograms of the bound ligand Lb, corrected for nonspecific binding and standard calibration beads referred to as std, observed at similar detection settings. MESF stands for mean equivalent of soluble fluorophores and is the number of fluorescein molecules whose emission intensity is equal to MCFstd on each bead.
The magnitude of bound sites per bead were determined from centrifugation assays.

[9] = biological target: non-biotinylated fluorescent 5-FLAG peptide (soluble); experiment: centrifugation assay, spectrofluorimetry of residual supernatants; soluble fluorescent FLAG peptide on M2-bearing beads
[10] = biological target: Texas-Red labeled M1 anti-FLAG monoclonal antibody (IgG); experiment: competition: TR-M1 pre-equilibrated with thousand-fold excess soluble non-fluorescent FLAG peptide, then passed over bead-borne fluorescein FLAG peptide; FRET
[11] = biological target: fluorescein biotin-bearing beads (Streptomyces avidinii, UniProt P22629); experiment: Detection of native biotin via fluorescence unquenching of fluorescein biotin in affinity micro-column; type: binding; conditions: 2 μL aliquot of 3 mM native biotin
Chain of fluorescein biotin-bearing beads (P22629 25-183): as above
Description: Streptavidin coated beads bearing ≈1×10^6 fluorophores/bead were packed into the micro-channel.
(§1) Ostrich quenching is dependent on the length and structure of the ligand. […] Addition of native biotin recovers the original intensity under diffusion-limited kinetics. The extent of quenching and recovery on beads depends on site occupancy of the fluorescein biotin. […] The five-fold increase in intensity was consistent with a result from a flow cytometry measurement (data not shown). […] The magnitude of n2 relative to n1 is likely due to the disruption of the packing of beads upon initial contact with the plug of sample. It is likely that such disruption can be minimized through optimization of bead packing and sample injection procedures.

streptavidin = streptavidin (Streptomyces avidinii, UniProt P22629); experiment: Ostrich quenching of fluorescein biotin bound to streptavidin; type: binding; conditions: bound to excess soluble streptavidin
Chain of streptavidin (P22629 25-183): as above
Description: Under certain circumstances, binding of fluorescent ligands to streptavidin is characterized by the quenching of fluorescence of bound relative to free ligands. Typically, this type of quenching referred to as “ostrich quenching” occurs when the fluorophore (e.g., fluorescein) moiety of a biotinylated ligand associates with the receptor pocket adjacent to the biotin-moiety bearing site. Such a method is described in the following reference: Buranda, T., Jones, G., Nolan, J., Keij, J., Lopez, G. P., and Sklar, L. A. (1999) Ligand Receptor Dynamics at Streptavidin Coated Particle Surfaces: A Flow Cytometric and Spectrofluorimetic Study J. Phys. Chem. B. 103, 3399-3410, the entire contents and disclosure of which is hereby incorporated by reference.
as §1

[12] = biological target: streptavidin on 6.2 µm streptavidin-coated beads (UniProt P22629); experiment: centrifugation assay with spectrofluorimetry and flow cytometry; biotinylated peptide on streptavidin-coated beads (binding through biotin)
Chain of streptavidin on 6.2 µm streptavidin-coated beads (P22629 37-163 limits assumed): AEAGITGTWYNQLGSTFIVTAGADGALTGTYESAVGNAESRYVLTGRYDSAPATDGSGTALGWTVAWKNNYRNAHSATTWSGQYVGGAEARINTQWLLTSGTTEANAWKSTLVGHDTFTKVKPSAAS

Q: What does the source list for “Texas-Red labeled M1 anti-FLAG monoclonal antibody (IgG)”?
A: quenching of peptide fluorescence at saturation [1]: > 60%; Kd [2]: 13.3 nM; koff [2]: 0.0012 s⁻¹; kon [2]: 90000 M⁻¹ s⁻¹; Kd [3]: 4 nM; Kd [4]: 4 nM; Kd [5]: 37 nM; Kd [6]: 9 nM; Kd [7]: 10 nM

Q: How did the Kd [8] turn out when “Biotinylated and fluorescein-tagged FLAG peptide (epitope DYKDDDDK) tethered to streptavidin-coated beads [5-FLAG]” was run?
A: 0.3 nM and ~0.3 nM

Q: “biotinylated anti-FLAG M2 IgG on streptavidin-coated beads (antibody)” was tested. Which Kd [9] did it give?
A: 8 nM

Q: Which FRET signal remaining with thousand fold excess of soluble peptide [10] does the source give for “dark non-fluorescent FLAG peptide (soluble)” here?
A: < 10%

Q: Which “increase in intensity of fluorescein biotin-bearing beads” value [11] does the source give for `O=C(O)CCCC[C@@H]1SC[C@@H]2NC(=O)N[C@@H]21` [native biotin, biotin] here?
A: fivefold

Q: With `O=C(CCCCCNC(=O)CCCC[C@@H]1SC[C@@H]2NC(=O)N[C@@H]21)NCCCCCNC(=S)Nc1ccc2c(c1)C(=O)OC21c2ccc(O)cc2Oc2cc(O)ccc21` [fluorescein biotin] as the compound, how does the Kd [8] read?
A: ~0.5 nM

Q: What about the “quenching of the fluorescence” value (streptavidin) of the same compound?
A: > 90%

Q: Which Kd [12] does the source give for “biotinylated and fluorescein-tagged 5-FLAG peptide on streptavidin-coated beads” here?
A: 0.3 nM
